Measurements from patent US12291562B2, “Reagents and assays using modified integrin domains” (Rush University Medical Center, priority 2019, dated 2025).

Experiments:
[1] = Phage ELISA on blocked well; format: binding; details: Table 5, scFv phage diluted 1:5
Procedure: (§1) After 2 rounds of enrichment against the primary target, positive binders were identified by phage ELISA and analyzed by restriction mapping & sequencing for identification of unique clones. Small scale phage growths were diluted 1:5 in TBS+casein. Nunc Maxi-Sorp strip wells were coated at ˜5 μg/ml of each test protein overnight at 4° C. and blocked with TBS+casein. The diluted phage were applied and allowed to bind for 1 hour with shaking. The wells were washed 4 times with TBS+0.05% Tween20 and twice with TBS. Bound phage were detected by incubation for 1 hour with anti-M13-HRP and after washing as above, developed with TMB. Absorbance at 450 nm was read after acidification of the wells.

[2] = system: CD11b A-domain polypeptides; test: Conformation selectivity in counterscreen and dilution series ELISA; format: binding, human; details: conclusion from ELISA data
Procedure: as §1
High binding clones were included in a counterscreen ELISA against other CD11b A-domain polypetides which produced the following data:
To confirm binding, a dilution series experiment was carried out. Select clones were subjected to a dilution series which generated the following data: […]

[3] = target: T1, BZ348014 (CD11b A-domain CD11bA-D242A/F275S/F302G) (Homo sapiens, UniProt P11215, D258A/F291S/F318G); test: Phage ELISA on BZ348014; format: binding; details: Table 5; scFv phage diluted 1:5; after 2 rounds of enrichment
T1 construct: MGS-8XHis-SG (N); TEV site (ENLYFQ) followed by GS linker (N); made in house; host or cells: E. coli BL21DE3 (pET-11d)
Excerpt: A naïve human scFv phage display library and VHH phage display library were screened against several integrin targets of interest. The screen involved phage ELISA followed by sequencing.
Example experiment: A diverse naïve human scFv phage display library (Neoclone, LLC, Madison, WI) was enriched on BZ348014.
as §1

BZ348014 antigen = target: T2, BZ348014 antigen (Homo sapiens, UniProt P11215, D258A/F291S/F318G); test: VHH phage display library screening; format: binding
T2 construct: MGS-8XHis-SG (N); TEV site (ENLYFQ) followed by GS linker (N); made in house; host or cells: E. coli BL21DE3 (pET-11d)
Procedure: A panning and enrichment of the BZ348014 antigen against a VHH phage display library (Neoclone, LLC, Madison, WI) was also conducted in an identical manner to the human scFv phage display library screen. One unique binder was identified, clone 8.

T1 sequence (P11215 148-337 D258A/F291S/F318G): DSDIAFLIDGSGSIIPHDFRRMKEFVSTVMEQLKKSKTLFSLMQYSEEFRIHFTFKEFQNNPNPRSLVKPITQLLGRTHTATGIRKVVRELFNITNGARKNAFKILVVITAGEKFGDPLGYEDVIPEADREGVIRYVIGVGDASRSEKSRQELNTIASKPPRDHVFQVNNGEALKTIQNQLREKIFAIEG
T2 sequence (P11215 148-337 D258A/F291S/F318G): as above

B1: Clone 6: scFv phage clone, VL-linker-VH, SEQ ID NO: 64 (protein)
scFv: QSVLTQPPSASGTPGQRVTISCSGSSSNIGSNYVSWYQQLPGTAPKLLIYDNNKRPSGIPDRFSGSKSGTSATLGITGLQTGDEADYYCGTWDSSLSALYVFGAGTKLTVLGEGKSSGSGSESKASQVQLQESGPGLVKPSETLSLTCSVSGGSTSSYYWSWIRQPPGKGLEWIGYISNSGSTNYNPSLKSRVTMSIDTSNNQFSLKLSSVTAADTAVYYCASHLGATWRWGQGTLVTVSS
modifications: Clone 6
- ELISA absorbance at 450 nM, Blocked well [1]: 0.041
- Selectivity of binding to CD11b A-domain polypeptides mutationally stabilized in active conformation over the other conformations [2]: bound selectively

B2: Clone 13: phage clone, VH only, SEQ ID NO: 66 (antibody, V domains shown)
VH: EVQLLESGGGLVQPGGSLRLSCAASGFTFSSDLMSWVRQAPGKGLEWVSAISGSGGSTYYADSVKGRFTISRDNSKNTLYLQMNSLRAEDTAVYYCAKNEVIFDYWGQGTLVTVSSASTKGLSMFDYWGQGTKVEIK
modifications: Clone 13
- ELISA absorbance at 450 nM, Blocked well [1]: 0.043
- Selectivity of binding to CD11b A-domain polypeptides mutationally stabilized in active conformation over the other conformations [2]: bound selectively

B3: Clone 14: scFv phage clone, VK-Linker-VH, SEQ ID NO: 67 (protein)
scFv: DVVMTQSPLSLPATLGQPASISCRSSQSLVYTDGNTYLNWFQQRPGQSPRRLIYKVSNRDSGVPDRFSGSGSGTHFTLKISRVEAEDVGVYYCMQGTHWPPTFGQGTKVEIKEGKSSGSGSESKASEVQLVQSGAEVKKPGASVKVSCKASGGTFSSYAISWVRQAPGQGLEWMGGIIPIFGTANYAQKFQGRVTITADESTSTAYMELSSLRSEDTAVYYCASSGVDYWGQGTLVTVSS
modifications: Clone 14
- ELISA absorbance at 450 nM, Blocked well [1]: 0.044
- Selectivity of binding to CD11b A-domain polypeptides mutationally stabilized in active conformation over the other conformations [2]: bound selectively

B4: Clone 5: scFv phage clone, VL-Linker-VH, SEQ ID NO: 63 (protein)
scFv: SSELTQDPAVSVALGQTVRITCQGDSLRSYYASWYQQKPGQAPVLVIYGKNNRPSGIPDRFSGSTSGNFASLTITGAQAEDGADYYCHSRDSSGNHLVFGGGTKLTVLGEGKSSGSGSESKASEVQLVQSGAEVKKPGESLKISCKGSGYSFTSYWIGWVRQMPGKGLEWMGIIYPGDSDTRYSPSFQGQVTISADKSISTAYLQWSSLKASDTAMYYCARRARGAFDIWGQGTLVTVSS
modifications: Clone 5
- ELISA absorbance at 450 nM, Blocked well [1]: 0.045
- Selectivity of binding to CD11b A-domain polypeptides mutationally stabilized in active conformation over the other conformations [2]: limited or no selectivity

B5: Clone 8: clone from naïve human scFv phage display library enriched on BZ348014 (Table 5); not the VHH clone 8 (protein)
scFv: DVQLVESGGGLVQPGGSLRLSCTASGFTFSNYAMNWVRQAPGKGLEWVSVISSSGSRRNYADSVKGRFTISRDNAKSTLYLQMNSLKPEDTAVYYCAKVRDAGYYRWNLNDLDYRGQGTQVTVSS
modifications: Clone 8
- ELISA absorbance at 450 nM, BZ348014 [3]: 0.060
- ELISA absorbance at 450 nM, Blocked well [1]: 0.047
- Binder identified by panning and enrichment against BZ348014 antigen (BZ348014 antigen): unique binder

B6: Clone 11: scFv phage clone, VH-linker-VK, SEQ ID NO: 65 (protein)
scFv: EVQLVESGGGVVQPGRSLRLSCAATGFTFSNYGIHWVRQAPGKGLEWVAVTSYDGSNKYYADSVKGRFTISRDNSKNTLYLQMNSLRVEDTAVYYCAKDRGYYTYVFDYWGRGTLVTVSSGEGKSSGSGSESKASDVVMTQTPLSLPVTPGEPAAISCRSSQSLLHSNGYNYLDWYLQKPGQSPQLLIYLGSNRASGVPDRFSGSGSGTDFTLKISRVEAEDVGVYYCMQAVQTVD
modifications: Clone 11
- ELISA absorbance at 450 nM, BZ348014 [3]: 0.628
- ELISA absorbance at 450 nM, Blocked well [1]: 0.043
